These results are taken from patent US20250332297A1, “DLL3-SPECIFIC BINDING CONSTRUCTS AND THEIR USE IN RADIOTHERAPY” (MOLECULAR PARTNERS AG, priority 2024, published 2025).

As a reminder, the Kd is the free concentration of one partner at which half of the binding sites on the other are occupied at equilibrium, for simple one-to-one binding. What is called koff is a measure of how fast the partners let go of each other. For orientation: kon means a measure of how fast the partners come together.

The target of data set [1] is T1, mouse DLL3-ECD (recombinant extracellular domain of mouse DLL3) (mouse, UniProt O88516 33-490).
T1 construct: extracellular domain
T1 sequence (looked up): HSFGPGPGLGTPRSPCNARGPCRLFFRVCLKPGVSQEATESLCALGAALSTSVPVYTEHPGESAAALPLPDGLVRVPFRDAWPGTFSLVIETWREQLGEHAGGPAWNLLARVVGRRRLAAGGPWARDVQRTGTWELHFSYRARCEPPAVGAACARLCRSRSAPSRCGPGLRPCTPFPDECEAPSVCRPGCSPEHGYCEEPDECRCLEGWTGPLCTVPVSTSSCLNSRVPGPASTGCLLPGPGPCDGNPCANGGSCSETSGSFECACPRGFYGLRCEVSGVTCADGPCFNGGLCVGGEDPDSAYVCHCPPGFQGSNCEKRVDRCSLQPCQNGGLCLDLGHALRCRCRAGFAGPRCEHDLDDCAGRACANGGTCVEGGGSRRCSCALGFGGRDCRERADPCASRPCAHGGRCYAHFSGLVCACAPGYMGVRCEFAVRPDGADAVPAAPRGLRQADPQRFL
Description: SPR (ProteOn), biotinylated DARPin on chip, mouse DLL3-ECD as analyte, 1:1 Langmuir fit. On the procedure:
(§1) SPR multi-trace analyses were performed similarly as described in Examples 1 and 11. Here, the binding kinetics of immobilized DARPin proteins to the extracellular domain of DLL3 (DLL3-ECD) from human, cynomolgus monkey, mouse and pig were determined.
(§2) Streptavidin SAHC200M (Xantec) SPR chip was conditioned according to the manufacturer's protocol.

Data set [2] deals with pig DLL3-ECD (recombinant extracellular domain of pig DLL3) (pig). As to the kind of experiment: SPR (ProteOn), biotinylated DARPin on chip, pig DLL3-ECD as analyte, 1:1 Langmuir fit.
The target of data set [3] is T2, Human DLL3-ECD (recombinant extracellular domain of human DLL3, Examples 11, 17 and 19) (human, UniProt Q9NYJ7 27-466, biotinylated at the Avi-tag where immobilised (Examples 11 and 19)).
T2 construct: also called hDLL3-ECD; human ECD; not shown: Avi-tag and Fc knob into hole (order depends on the format)
T2 sequence: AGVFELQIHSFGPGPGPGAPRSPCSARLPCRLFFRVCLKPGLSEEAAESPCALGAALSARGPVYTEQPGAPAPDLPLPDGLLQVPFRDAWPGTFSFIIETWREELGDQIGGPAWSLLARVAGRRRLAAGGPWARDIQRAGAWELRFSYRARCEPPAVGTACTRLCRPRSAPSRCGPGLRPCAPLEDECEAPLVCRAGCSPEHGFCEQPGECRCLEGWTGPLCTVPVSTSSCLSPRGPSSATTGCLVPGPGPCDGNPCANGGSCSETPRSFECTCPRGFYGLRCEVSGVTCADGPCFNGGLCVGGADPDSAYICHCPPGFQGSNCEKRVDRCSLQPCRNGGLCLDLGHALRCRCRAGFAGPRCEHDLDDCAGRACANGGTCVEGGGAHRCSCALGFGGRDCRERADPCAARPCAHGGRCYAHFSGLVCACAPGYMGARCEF
Description: SPR (ProteOn), biotinylated DARPin on chip, human DLL3-ECD as analyte, 1:1 Langmuir fit. On the procedure: as §1, §2

The target of data set [4] is T3, Cyno DLL3-ECD (extracellular domain of cynomolgus macaque DLL3, residues 27 to 466, Avi-tag, 3C site, Fc knob … (cynomolgus macaque, UniProt A0A2K5WSR1 27-464, biotinylated at the Avi-tag (Example 11))).
T3 construct: range 27-466; also called cyno ECD; cynomolgus monkey DLL3; not shown: Avi-tag, 3C protease recognition site and Fc knob into hole
T3 sequence: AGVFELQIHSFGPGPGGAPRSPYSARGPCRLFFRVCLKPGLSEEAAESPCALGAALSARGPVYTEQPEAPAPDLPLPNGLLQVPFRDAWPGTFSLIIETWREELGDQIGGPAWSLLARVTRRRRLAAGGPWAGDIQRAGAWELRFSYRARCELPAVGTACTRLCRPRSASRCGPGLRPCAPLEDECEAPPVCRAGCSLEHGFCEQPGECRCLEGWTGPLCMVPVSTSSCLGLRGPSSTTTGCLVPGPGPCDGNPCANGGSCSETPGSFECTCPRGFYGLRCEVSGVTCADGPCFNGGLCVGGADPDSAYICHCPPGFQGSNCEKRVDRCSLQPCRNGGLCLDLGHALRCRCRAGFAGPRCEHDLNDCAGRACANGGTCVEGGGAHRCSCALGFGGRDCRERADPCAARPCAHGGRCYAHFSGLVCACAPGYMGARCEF
As to the kind of experiment: SPR (ProteOn), biotinylated DARPin on chip, cyno DLL3-ECD as analyte, 1:1 Langmuir fit. On the procedure: as §1, §2

Data set [5] is described as follows: Pharmacokinetic analysis in WT BALBc mice (serum, ELISA). The class given is in vivo, mouse. The settings on record: 1 mg/kg i.v. From the text:
The pharmacokinetic (PK) properties of lead-labelled DARPin (MAM160, MAM279, MAM282, MAM283) conjugates were investigated in mice, including to determine the terminal half-life (or serum half-life) of these conjugates.
In brief, DARPins MAM279, MAM283, MAM160 and MAM282 were conjugated to the chelator DOTAM, via a C-terminal Cysteine containing tag and a connector, as described in Example 3. The conjugates were then labelled with natural lead (Pb). The protein components of the conjugates corresponded to SEQ ID NOs: 15 to 18, respectively. These lead-labelled DARPin conjugates were injected i.v. at 1 mg/kg into WT BALBc mice. Serum was collected 2 min, 10 min, 30 min, 1 h, 4 h, 24 h, 48 h, and 72 h post-injection. DARPins were detected and measured by ELISA. The data were expressed as the DARPin concentration in serum (nmol/L).
In brief, lead-labelled MAM279 conjugate, as described in Example 13, was injected i. at 0.1 mg/kg or at 1 mg/kg into the tail vein of WT BALBc mice. Serum was collected 2 min, 10 min, 30 min, 1 h, 4 h, 24 h, 48 h, and 72 h post-injection for MAM279 conjugate injected at 1 mg/kg, and 2 min, 30 min, 4 h, 24 h, 30 h, 48 h, 72 h, 96 h, and 168 h post-injection for MAM279 conjugate injected at 0.1 mg/kg. DARPins were detected and measured by ELISA. The data were expressed as the DARPin concentration in serum (nmol/L).
In brief, natural lead-labelled MAM279 conjugate, as described in Example 13, was injected i.v. at different doses (0.001 mg/kg, 0.01 mg/kg, 0.1 mg/kg, or 1 mg/kg) into the tail vein of WT BALBc mice. Similarly, unconjugated Rova was injected iv. at 1 mg/kg into the tail vein of WT BALBc mice. Serum was collected 2 min, 10 min, 30 min, 1 h, 4 h, 24 h, 48 h, and 72 h post-injection for MAM279 conjugate injected at 1 mg/kg, and 2 min, 30 min, 4 h, 24 h, 30 h, 48 h, 72 h, 96 h, and 168 h post-injection for MAM279 conjugate injected at 0.1 mg/kg, 0.01 mg/kg and 0.001 mg/kg. Serum was collected 2 min, 30 min, 4 h, 24 h, 30 h, 48 h, 72 h, 96 h, and 168 h post-injection for Rova antibody injected at 1 mg/kg. DARPins and Rova were detected and measured by ELISA. Rova PK characteristics were calculated with time points between 4 h and 168 h and MAM279 conjugate PK characteristics were calculated with time points between 4 h and 72 h. The data were expressed as the DARPin or Rova concentration in serum (nmol/L). Results are shown in FIGS. 19A and 19B and Table 22.

A short description of data set [6]: Dose response finding (tolerability) in WT CD1 mice.

B1: Biotinylated 2D DARPin MAM279 (SEQ ID NO: 11) with a Glycine-Serine (GS) at the N-terminal end (designed binder)
chain: GSDLGKKLLEAARAGQDDEVRELLKAGADVNAKDYFSHTPLHLAARNGHLKIVEVLLKAGADVNAKDFAGKTPLHLAADAGHLEIVEVLLKAGADVNAQDIFGKTPADIAADAGHEDIAEVLQKAAGSPTPTPTTPTPTPTTPTPTPTGSDLGKKLLAAAAQGQDDEVRELLKAGANVNAKDLFGYTPLHLAAWRGHLEIVEVLLKAGADVNAKDAAGETPLHLAAWFGHLEIVEVLLKAGADVNAQDLQGKTPADLAAKEGHEDIAEVLQKAA
modifications: biotinylated (site and any tag used not stated)
notes: also called Biotinylated DARPin MAM279
For the molecule B1, the dissociation constant (Kd) worked out at 83.9 nM in data set [1], 17.3 nM in data set [2], 0.127 nM in data set [3] and 8.88 nM in data set [4]. For the same molecule, the koff in data set [1] stood at 0.00282 s⁻¹; in data set [2] it was 0.000319 s⁻¹; in data set [3], 1.31e-05 s⁻¹; in data set [4], 0.000939 s⁻¹. Besides, the on-rate (kon) in data set [1] stood at 33700 M⁻¹ s⁻¹; in data set [2], 18400 M⁻¹ s⁻¹; in data set [3], 102000 M⁻¹ s⁻¹; in data set [4], 106000 M⁻¹ s⁻¹.

B2: Biotinylated 1D DARPin MAM093 (SEQ ID NO: 1) with a Glycine-Serine (GS) at the N-terminal end (designed binder)
chain: GSDLGKKLLAAAAQGQDDEVRELLKAGANVNAKDLFGYTPLHLAAWRGHLEIVEVLLKAGADVNAKDAAGETPLHLAAWFGHLEIVEVLLKAGADVNAQDLQGKTPADLAAKEGHEDIAEVLQKAA
modifications: biotinylated (site and any tag used not stated)
notes: also called Biotinylated DARPin MAM093
Consider B2, for which the dissociation constant Kd in data set [1] came to 149 nM; in data set [2], 14.3 nM; in data set [3], 0.13 nM; in data set [4], 8.72 nM. The koff was 0.004 s⁻¹ in data set [1], 0.00033 s⁻¹ in data set [2], 1.18e-05 s⁻¹ in data set [3] and 0.000825 s⁻¹ in data set [4]. In addition, the kon in data set [1] came out at 26700 M⁻¹ s⁻¹; in data set [2], 23100 M⁻¹ s⁻¹; in data set [3], 90700 M⁻¹ s⁻¹; in data set [4] it was 94700 M⁻¹ s⁻¹.

B3: MAM283 conjugate: SEQ ID NO: 16 conjugated to DOTAM-maleimide, labelled with Pb-212 (natural lead in PK studies) (conjugate)
chain: GSDLGKKLLEAARAGQDDEVRELLKAGADVNAKDYFSHTPLHLAARNGHLKIVEVLLKAGADVNAKDFAGKTPLHLAADAGHLEIVEVLLKAGADVNAQDIFGKTPADIAADAGHEDIAEVLQKAAGSPTPTPTTPTPTPTTPTPTPTGSDLGKKLLAAAADGQDDEVRELLQAGADVNAKDLFGYTPLHLAAWRGHLEIVEVLLEAGADVNAKDAAGETPLHLAAWFGHLEIVEVLLEAGADVNAQDVQGKTPADLAAKEGHEDIAEVLQQAAGSGSC
modifications: DOTAM-maleimide, Pb-212 label; Ankyrin repeat protein with tag (GS-MAM283-tag)
Take B3: in data set [5], the serum half-life was 12.7 h. Further, the appearance of animals result in data set [6] (Pb-212 labelled conjugate injected once at 10 μCi, 20 μCi and 30 μCi i.v., WT CD1 mice) is “animals appeared healthy and active”. Further, the “body weight (BW) change” value in data set [6] (Pb-212 labelled conjugate injected once at 10 μCi, 20 μCi and 30 μCi, WT CD1 mice, recovered within up to about 10 days) was “Minimal weight loss”. In addition, in data set [6] (Pb-212 labelled conjugate, injected dose of 60 μCi, WT CD1 mice), the toxicity result is “Toxicity was observed”. In addition, in data set [6] (within up to 28 days after injection of 10 μCi, 20 μCi and 30 μCi doses (data not shown)), the “hematology profile (white blood cells, lymphocytes, monocytes, neutrophils)” value is listed as “complete recovery”.
